# Reference: patent publication US20260209320A1 (ALCHEMAB THERAPEUTICS, published 2026)
# T1: Murine HTT antigen (murine)
# T1 construct: antigen of the murine HTT direct ELISA; also called murine HTT protein
# T1 chain: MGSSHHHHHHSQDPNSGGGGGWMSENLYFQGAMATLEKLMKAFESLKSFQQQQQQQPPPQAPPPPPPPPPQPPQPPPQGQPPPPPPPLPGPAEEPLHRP
# T2: human lysozyme (human, UniProt P61626 19-148)
# T2 sequence (looked up): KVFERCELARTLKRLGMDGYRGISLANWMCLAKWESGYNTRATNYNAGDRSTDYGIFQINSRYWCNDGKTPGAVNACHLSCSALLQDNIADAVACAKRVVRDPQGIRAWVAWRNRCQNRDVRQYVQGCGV
# Columns and labels:
# [1] = target: T3, WT Human HTT Exon 1 25Q (GST) (human); assay: HTT sandwich ELISA, biological repeat 2
# T3 construct: recombinant His- and GST-tagged fusion; also called Wild type Huntingtin (HTT) exon 1
# T3 sequence (chain, as listed by the source limits assumed, change not shown): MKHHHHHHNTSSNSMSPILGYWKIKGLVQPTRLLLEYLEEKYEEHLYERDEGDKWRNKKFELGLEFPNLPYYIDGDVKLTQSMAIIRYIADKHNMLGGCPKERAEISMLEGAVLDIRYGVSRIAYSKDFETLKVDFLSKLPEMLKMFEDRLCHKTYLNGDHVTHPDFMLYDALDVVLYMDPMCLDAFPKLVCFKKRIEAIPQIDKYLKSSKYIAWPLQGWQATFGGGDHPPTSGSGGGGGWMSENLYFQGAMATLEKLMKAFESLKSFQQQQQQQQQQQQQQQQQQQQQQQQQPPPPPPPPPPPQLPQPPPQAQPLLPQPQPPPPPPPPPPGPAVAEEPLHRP
# [2] = target: T4, Mutant Human HTT Exon 1 48Q (GST) (human); assay: HTT sandwich ELISA, biological repeat 3
# T4 construct: recombinant His- and GST-tagged fusion; also called HTT Exon 1 Q48; 48Q HTT Exon-1
# T4 sequence (chain, as listed by the source mutant limits assumed): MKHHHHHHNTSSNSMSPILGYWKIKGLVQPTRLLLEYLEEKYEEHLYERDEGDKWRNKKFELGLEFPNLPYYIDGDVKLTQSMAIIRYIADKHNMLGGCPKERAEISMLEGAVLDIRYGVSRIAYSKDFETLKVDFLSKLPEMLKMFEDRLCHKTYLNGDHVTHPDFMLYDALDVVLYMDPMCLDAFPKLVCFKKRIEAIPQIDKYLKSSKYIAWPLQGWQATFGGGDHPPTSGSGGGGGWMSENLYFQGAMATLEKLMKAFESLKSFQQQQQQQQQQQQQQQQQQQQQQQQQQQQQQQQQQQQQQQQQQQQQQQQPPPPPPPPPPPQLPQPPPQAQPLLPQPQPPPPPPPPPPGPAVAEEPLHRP
# [3] = target: T4, Mutant Human HTT Exon 1 48Q (GST); assay: HTT sandwich ELISA, average of repeats
# [4] = target: T4, Mutant Human HTT Exon 1 48Q (GST); assay: HTT sandwich ELISA, biological repeat 2
# [5] = target: T3, WT Human HTT Exon 1 25Q (GST); assay: HTT sandwich ELISA, average (one repeat assessed)
# [6] = target: T4, Mutant Human HTT Exon 1 48Q (GST); assay: HTT sandwich ELISA, biological repeat 1
# [7] = target: T4, Mutant Human HTT Exon 1 48Q (GST); assay: HTT sandwich ELISA; EC50 on HTT Exon 1 25Q over EC50 on HTT Exon 1 48Q
# [8] = target: T5, CACNA1A (human, UniProt O00555 1-2506); assay: Retrogenix cell microarray, HEK293 cells
# T5 construct: whole, on cells; also called Another poly Q protein
# T5 sequence (O00555 whole entry): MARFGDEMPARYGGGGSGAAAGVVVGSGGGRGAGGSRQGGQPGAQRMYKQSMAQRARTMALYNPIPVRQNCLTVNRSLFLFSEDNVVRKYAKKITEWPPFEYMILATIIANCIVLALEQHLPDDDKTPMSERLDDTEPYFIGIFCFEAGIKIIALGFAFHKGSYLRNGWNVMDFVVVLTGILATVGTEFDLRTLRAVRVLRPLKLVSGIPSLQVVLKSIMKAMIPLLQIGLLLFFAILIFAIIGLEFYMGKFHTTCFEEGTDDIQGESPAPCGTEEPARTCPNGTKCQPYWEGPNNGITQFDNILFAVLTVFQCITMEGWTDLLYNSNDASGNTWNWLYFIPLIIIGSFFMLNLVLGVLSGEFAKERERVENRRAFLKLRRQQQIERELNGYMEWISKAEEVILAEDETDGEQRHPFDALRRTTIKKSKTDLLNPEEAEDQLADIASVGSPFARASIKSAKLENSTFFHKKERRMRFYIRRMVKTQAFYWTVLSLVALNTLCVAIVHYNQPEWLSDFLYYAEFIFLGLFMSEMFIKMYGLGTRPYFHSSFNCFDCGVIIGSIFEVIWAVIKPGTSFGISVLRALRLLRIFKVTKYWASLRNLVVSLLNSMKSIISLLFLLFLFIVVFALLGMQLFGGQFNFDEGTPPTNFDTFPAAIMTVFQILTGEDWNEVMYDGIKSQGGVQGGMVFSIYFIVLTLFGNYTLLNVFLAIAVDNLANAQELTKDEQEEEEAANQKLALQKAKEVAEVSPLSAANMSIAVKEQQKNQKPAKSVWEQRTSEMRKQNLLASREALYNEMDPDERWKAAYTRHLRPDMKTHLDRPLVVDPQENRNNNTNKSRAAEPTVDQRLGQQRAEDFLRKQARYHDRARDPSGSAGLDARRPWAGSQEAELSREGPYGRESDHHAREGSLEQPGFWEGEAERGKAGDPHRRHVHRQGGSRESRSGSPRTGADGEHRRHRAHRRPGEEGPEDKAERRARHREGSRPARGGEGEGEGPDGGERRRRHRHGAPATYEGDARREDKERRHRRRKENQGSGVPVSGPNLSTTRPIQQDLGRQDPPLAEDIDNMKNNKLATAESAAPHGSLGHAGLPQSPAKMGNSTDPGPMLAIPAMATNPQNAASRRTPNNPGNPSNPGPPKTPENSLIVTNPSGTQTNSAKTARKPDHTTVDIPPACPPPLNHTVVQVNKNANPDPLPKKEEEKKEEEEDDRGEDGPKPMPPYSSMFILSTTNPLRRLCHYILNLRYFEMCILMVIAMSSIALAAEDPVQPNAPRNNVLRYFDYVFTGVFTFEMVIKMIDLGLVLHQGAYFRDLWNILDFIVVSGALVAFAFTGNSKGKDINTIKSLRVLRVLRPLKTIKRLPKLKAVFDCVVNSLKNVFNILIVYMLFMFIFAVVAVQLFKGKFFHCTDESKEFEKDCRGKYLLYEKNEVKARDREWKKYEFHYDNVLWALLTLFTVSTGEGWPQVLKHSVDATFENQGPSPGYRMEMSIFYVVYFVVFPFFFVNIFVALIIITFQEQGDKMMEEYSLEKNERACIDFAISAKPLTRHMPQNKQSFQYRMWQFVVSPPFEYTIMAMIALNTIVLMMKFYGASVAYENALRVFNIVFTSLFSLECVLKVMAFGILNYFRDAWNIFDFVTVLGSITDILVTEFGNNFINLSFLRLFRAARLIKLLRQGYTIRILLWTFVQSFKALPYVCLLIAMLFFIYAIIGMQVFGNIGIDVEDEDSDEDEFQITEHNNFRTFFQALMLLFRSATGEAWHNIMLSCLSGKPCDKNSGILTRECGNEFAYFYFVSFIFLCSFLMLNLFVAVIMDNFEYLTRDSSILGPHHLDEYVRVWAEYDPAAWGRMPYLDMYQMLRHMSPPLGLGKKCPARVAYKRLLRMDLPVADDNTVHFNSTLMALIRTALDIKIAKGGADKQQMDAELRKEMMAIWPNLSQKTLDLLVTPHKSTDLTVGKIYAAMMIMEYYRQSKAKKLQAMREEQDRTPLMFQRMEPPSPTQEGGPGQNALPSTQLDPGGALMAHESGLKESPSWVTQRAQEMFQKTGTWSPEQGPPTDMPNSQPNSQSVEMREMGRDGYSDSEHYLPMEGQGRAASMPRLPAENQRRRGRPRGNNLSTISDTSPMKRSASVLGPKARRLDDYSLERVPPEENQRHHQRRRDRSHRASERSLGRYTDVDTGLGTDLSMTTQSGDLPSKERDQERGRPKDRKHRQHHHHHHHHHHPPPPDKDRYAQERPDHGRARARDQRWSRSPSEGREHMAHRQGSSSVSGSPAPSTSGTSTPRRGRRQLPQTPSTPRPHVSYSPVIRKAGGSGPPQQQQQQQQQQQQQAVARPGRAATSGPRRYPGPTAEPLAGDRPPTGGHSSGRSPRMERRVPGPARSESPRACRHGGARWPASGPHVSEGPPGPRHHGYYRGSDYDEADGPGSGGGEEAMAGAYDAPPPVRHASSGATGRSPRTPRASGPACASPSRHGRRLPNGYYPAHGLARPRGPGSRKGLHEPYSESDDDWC
# [9] = target: T1, Murine HTT antigen; assay: direct ELISA on coated murine HTT antigen
# [10] = target: T3, WT Human HTT Exon 1 25Q (GST); assay: HTT sandwich ELISA, biological repeat 1
# [11] = target: T2, human lysozyme; assay: direct ELISA
# [12] = target: T3, WT Human HTT Exon 1 25Q (GST); assay: HTT sandwich ELISA, biological repeat 3
# [13] = target: T3, WT Human HTT Exon 1 25Q (GST); assay: HTT sandwich ELISA, average of repeats
Binder,EC50 [1],EC50 [2],EC50 [3],EC50 [4],EC50 [5],EC50 [6],Ratio of EC50 for 25Q:48Q HTT Exon 1 [7],binding result [8],binding result [9],EC50 [10],binding result [11],EC50 [12],EC50 [13]
"ATL_0005059/NI-302.8F1 (antibody, V domains shown, also called ATL_5059; CA_0000274) VH: EVQLVESGGGLVKPGGSLTISCAASGFTFSNAWMNWVRQAPGKGLEWVGHIRTQAEGGTSDYAAPVKGRFTISRDDSKNTLYLQMNSLKTEDTAVYYCIPPPYYYYYGLDVWGQGTTVTVSS VL: QSALTQPASVSGSPGQSITISCTGASSDVGTYDLVSWYQQHPGKAPKLIIYEVNKRPSGVSYRFSASKSANTASLTISGLQAEDEAEYYCCSYAGYSTVFGGGTKLTVL",19.3 nM,17.5 nM,17.3 nM,16.2 nM,19.3 nM,18.1 nM,1.12,,,,,,
"ATL_0005895 (antibody, V domains shown, human IgG1; also called ATL_5895; ATL5895) VH: EVQLVESGGGLVKPGGSLRLSCAASGFTFNKAWMSWVRQAPGKGLEWVGRIKSGIDAGTTDYAAPVKGRFTISRDDSKNTLYLQMNSLKTEDTAVYYCIPPPYYYYYGLDVWGQGTTVTVSS VL: QSALTQPRSVSGSPGQSVTISCTGTSSDVGSYNLVSWYQQHPGKAPKLMIYEVNKRPSGVPDRFSGSKSGATASLTISGLQAEDEADYYCGSYAGTANVFGTGTKVTVL",3.91 nM,3.2 nM,2.08 nM,3.83 nM,,0.731 nM,1.79,no binding (tested: 2 µg/mL antibody),binds,2.97 nM,no binding (tested: less than 1 µM),4.39 nM,3.71 nM
"ATL_0005901 (antibody, V domains shown, human IgG1; also called ATL_5901; ATL5901) VH: EVQLVESGGGLVKPGGSLRLSCAASGFTFNKAWMSWVRQAPGKGLEWVGRIKSGIDAGTTDYAAPVKGRFTISRDDSKATLYLQMNSLKTEDTAVYYCIPPPYYYYYGLDVWGQGTTVTVSS VL: QSALTQPASVSGSPGQSITISCTGTSSDVGGYKLVSWYQQHPGRAPKLMIYEVSKRPSGVSSRFSGSKSGSTASLTISGLQAEDEADYYCSSYAGSSVVFGGGTKLTVL",4.52 nM,4.59 nM,2.4 nM,,,1.25 nM,2.05,,,5.59 nM,,4.73 nM,4.92 nM
"ATL_0005567 (antibody, V domains shown, human IgG1; also called ATL_5567; ATL5567) VH: EVQLVESGGGLVKPGGSLRLSCAASGFTFNKAWMNWVRQAPGKGLEWVGRIKSGIDGGTTDYAAPVQGRFTISRDDSKNTVYLQMNSLNTEDTAVYYCIPPPYYYYYGLDVWGQGTTVTVSS VL: QSALTQPASVSGSPGQSITISCTGTSSDIGSYNLVSWYQQHPGNAPKPLIYEGSKRPSGVSARFSGSKSGNTASLTISGLQPEDEADYYCSSYAGFSTLVFGGGTKVTVL",9.63 nM,4.59 nM,6.39 nM,6.55 nM,,8.7 nM,1.18,no binding (tested: 5 µg/mL antibody),,,,5.95 nM,7.57 nM
